This data set concerns the molecule itself. Put plainly: cross-linking.

B1: σ1 M332C, S370P, Q371E, S403C of the HeadΔSA mutant virus, on purified virions (natural protein, UniProt P04506 1-470, looked up)
chain: MDASLITEIRKIVLQLSVSSNGSQSKEIEEIKKQVQVNVDDIRAANIKLDGLGRQIADISNSISTIESRLGEMDNRLVGISSQVTQLSNSVSQNTQSISSLGDRINAVEPRVDSLDTVTSNLTGRTSTLEADVGSLRTELAALTTRVTTEVTRLDGLINSGQNSIGELSTRLSNVETSMVTTAGRGLQKNGNTLNVIVGNGMWFNSSNQLQLDLSGQSKGVGFVGTGMVVKIDTNYFAYNSNGEITLVSQINELPSRVSTLESAKIDSVLPPLTVREASGVRTLSFGYDTSDFTIINSVLSLRSRLTLPTYRYPLELDTANNRVQVADRFGCRTGTWTGQLQYQHPQLSWRANVTLNLMKVDDWLVLSFPEMTTNSIMADGKFVINFVSGLSSGWQTGDTEPCSTIDPLSTTFAAVQFLNNGQRIDAFRIMGVSEWTDGELEIKNYGGTYTGHTQVYWAPWTIMYPCNVR
Regarding B1, the binding result is on record as “binds”.
